The chains are these.
B2: His6–Pos1 (natural protein, S. pombe, UniProt O13743 1-269, looked up)
chain: MAFSPANSFLINKSICESKEVEPLEANLFGKLHNKLLICKAKKENLEKKLAYQMMYSKLLKSLPKLSSLEENKLTKLKAPIEDMENTKKELEEIRKQSTETELRYLKSLSNTLSFGTLSLSNEINKVGPSASFMLKEVHDSVQVLEQRLEKMGLIEKPSESSESSIYSILASLKHTNDSLQKKELSPHEIAESPSSHSTSPMGRNVDTETLSFLLIDWQRLCAEQNTFLRDITNNMSSSVPQDVLSQLRQFFFRSELLSDKLSNLCSES
notes: Pos1, S. pombe; also called His6-tagged Pos1; source: Rosetta2(DE3)pLysS bacteria (pETDuet); alone: purified on nickel magnetic beads; not shown: His6, N-terminal, kept
B3: FLAG–Spa2(200–360) (domain or fragment, S. pombe, UniProt O42869 200-360, looked up)
chain: NTVQANNSSTSSLSQGAQTGIDSSSNYLSRIEMLESSLAKSNSLLDSSKSEMEALKAKSISDATKHKNEIFQLEEKLHEASHEAEISIKKLNDAENRIKELENNPTLSFNPELEKNLKLMQELIVAESSKTQHIVELESCIDSLKAETERWKKVAINAKSA
notes: also called Spa2(200–360)–FLAG

The target in assay [1] is T1, MBP–Pos1 (S. pombe, UniProt O13743 1-269).
T1 construct: Pos1, S. pombe; source: Rosetta2(DE3)pLysS bacteria, purified on amylose beads, eluted with 10 mM maltose; not shown: MBP, N-terminal, kept
T1 sequence (looked up): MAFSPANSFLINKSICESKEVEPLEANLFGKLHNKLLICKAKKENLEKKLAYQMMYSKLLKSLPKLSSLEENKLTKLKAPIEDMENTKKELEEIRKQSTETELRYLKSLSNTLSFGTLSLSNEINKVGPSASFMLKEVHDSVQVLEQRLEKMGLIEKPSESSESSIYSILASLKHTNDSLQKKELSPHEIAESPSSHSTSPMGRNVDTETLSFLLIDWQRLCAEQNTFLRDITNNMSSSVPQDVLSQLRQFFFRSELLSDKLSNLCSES
In words: pull-down; GST proteins left on beads, incubated with eluted MBP proteins in GST buffer for 40 min at 4°C; washed three times; SDS-PAGE, Coomassie Blue. The following applies: both partners purified.

Assay [2] addresses B3. In words: pull-down; co-purification: His6–Pos1 and FLAG–Spa2(200–360) co-produced in bacteria with a dual expression system, purified on DYKDDDDK Fab-Trap agarose, eluted with 3×FLAG peptide; SDS-PAGE, Coomassie Blue. The following applies: partners not purified.
Assay [3] has as its target B2. In words: SEC; Superose 6 10/300 GL, 0.5 ml/min, 4°C, 10 mM Tris-HCl pH 7.5, 150 mM NaCl, 0.5 mM EDTA; each protein alone or the co-purified complex; sizes estimated from calibration standards. The following applies: both partners purified.

B1: GST–Spa2(305–360) (domain or fragment, S. pombe, UniProt O42869 305-360, looked up)
chain: TLSFNPELEKNLKLMQELIVAESSKTQHIVELESCIDSLKAETERWKKVAINAKSA
notes: not shown: GST, N-terminal, kept
Regarding B1, the binding result in assay [1] was “binds”. Consider B2, for which, in assay [2], the stoichiometry N (as a rule, a count of units in the complex or per binding partner) was ~1. As to B3, the binding result in assay [3] is “binds”.
